Measurements reported in patent US9371393B2, “Class I anti-CEA antibodies and uses thereof” (Immunomedics, Inc., priority 2009, dated 2016).

Experiments:
[1] = target: T1, NCA-90 (HeLa-KNC6/S44) (Homo sapiens, UniProt P40199); experiment: Indirect flow cytometry, HeLa-KNC6/S44; format: binding; conditions: antibodies at 1/50 dilution of 1 mg/ml stocks
T1 construct: expressed in transfected cells; host or cells: HeLa (HeLa-KNC6/S44)
T1 sequence (P40199 35-320): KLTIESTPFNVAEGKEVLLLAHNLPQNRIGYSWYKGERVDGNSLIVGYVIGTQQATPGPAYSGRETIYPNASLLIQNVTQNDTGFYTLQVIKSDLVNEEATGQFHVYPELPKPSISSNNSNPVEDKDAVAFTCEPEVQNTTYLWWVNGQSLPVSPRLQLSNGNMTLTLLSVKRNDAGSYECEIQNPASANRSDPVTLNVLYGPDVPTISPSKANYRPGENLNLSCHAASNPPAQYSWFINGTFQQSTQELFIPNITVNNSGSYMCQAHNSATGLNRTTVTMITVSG
Method: The reactivity of antibodies was tested by flow cytometry with a Becton-Dickinson FACSCAN®. The biotinylated second antibody was directed against mouse IgG and was detected by a streptavidin/phycoerythrin conjugate. Tests were carried out with antibodies at 1/50 dilution of 1 mg/ml stocks.
The antibodies MN-3 and MN-15 were tested for recognition of HeLa cells transfected with cDNA coding for CEA (HeLa-CEA2), NCA-90 (HeLa-KNC6/S44) and NCA-95 (HeLa-CGM6/1). As a negative control, HeLa cells transfected with the plasmid pSV2-Neo (control HeLa cells, HeLa-NeoA) were used. In addition to the antibodies MN-3 and MN-15, three control antibodies were included: […]

[2] = test system: CaPAN-1 adhesion to fibronectin; experiment: Adhesion to extracellular matrix proteins assay, CaPAN-1; format: cell-based, human
Method: (§1) Adhesion to extracellular matrix proteins assay—The assay was done using the CYTOMATRIX™ screening kit from CHEMICON® (Kit #ECM205, Temecula, Calif.). The kit contains 96-well plates with strips coated with fibronectin, vitronectin, laminin, collagen-I, or collagen-IV. Subconfluent cell cultures were used for these studies. Cells (1×10^6 cells/mol) were seeded onto coated substrate and incubated at 37° C. for 1 hour in a CO2 incubator in PBS containing Ca^2+/Mg^2+ (200 μL per well). Adherent cells were fixed and stained. The plate was washed to remove unadhered cells and stained with 100 μL per well of MTS (Cell Titer Aq 96, PROMEGA®, Madison, Wis.) for 5 minutes at room temperature. Excess stain was removed with three PBS washes. Solubilization buffer [100 μL of a 50:50 mixture of 0.1 mol/L NaH2PO4 (pH 4.5) and 50% ethanol] was added to each well. Relative attachment was determined using absorbance readings (A540 nm-A570 nm).

[3] = test system: NCA, MA, CEA; experiment: Specificity for NCA, MA and CEA; format: binding
Description: In 1983, Primus et al. described the first panel of MAbs (NP-1, NP-2, NP-3, and NP-4) that defined NCA-cross-reactive, MA-cross-reactive, and CEA-specific epitopes on the CEA molecule (Primus et al., Cancer Res 1983, 43:686-92). […] The “ion-sensitive” determinant on CEA first was delineated by Hansen et al. (Clin Res 1971, 19:143) using unadsorbed anti-CEA polyclonal serum, and subsequently by Haskell et al. (Cancer Res 1983, 43:3857-64) with MAb. NP-2 and NP-3 react with MA and CEA but not with NCA, whereas NP-4 reacts only with CEA (Primus et al., 1983). […] The present Example describes the production and characterization of a second generation of anti-CEA antibodies, including the MN-15 Class I anti-CEA MAb.
The reagents, formulation, standards, and assay protocol of the sandwich EIA used in these studies have been described elsewhere (Hansen et al., Clin Chem 1989, 35:146-51). All assays were performed with microwells coated with NP-1, except in one experiment, in which microwells were coated with MN-15. […] After the second incubation, the amount of probe bound to CEA was determined by washing out the unbound probe, adding substrate (o-phenylenediamine/hydrogen peroxide), adding acid to stop the reaction, and quantitating the color product by reading the adsorbance at 490 nm. […]

[4] = test system: MDA-468 adhesion to fibronectin; experiment: Adhesion to extracellular matrix proteins assay, MDA-468; format: cell-based, human
Method: as §1

[5] = test system: MCA38cea (human CEA-transfected line) adhesion to HUVEC; experiment: Endothelial cell adhesion assay, MCA38cea; format: cell-based, murine; conditions: without antibody 11.68±0.77%
Method: Percentage adhesion of various tumor cells with varying amounts of expressed CEACAM5 and CEACAM6 to HUVEC cells in the absence or presence of MN-15 Fab′, MN-3 Fab′, or Ag8 Fab′ control. Cells were labeled with 1 μCi/mL of ^3H-thymidine and added to HUVEC cultures and incubated for 30 minutes at 37° C. Samples were washed thrice with PBS to remove unattached cells. Attached tumor cells were solubilized with 0.1 N NaOH and radioactivity was measured in a B-scintillation counter. The cpm attached/total cpm added (attaching potential) was determined. Results of a typical study are presented. Cell lines used include BT-20 (CEACAM5+/CEACAM6+), MCF-7 (CEACAM5−/CEACAM6+), HT-29 (CEACAM5−/CEACAM6+), Moser (CEACAM5+/CEACAM6−), MCA38cea (CEACAM5+/CEACAM6−), and MCA38 (CEACAM5−/CEACAM6−).
Endothelial cell adhesion assay—Human umbilical vein endothelial cells (HUVEC; Cambrex, San Diego, Calif.) were grown in collagen-coated dishes in EGM Media in a humidified atmosphere with 5% CO2 at 37° C. At passages 2 to 5, cells were plated at a density of 4×10^4 cells per well in 96-well plates 24 hours before the assay. Interleukin-1β (IL-1β, 1 ng/mol) was added 4 hours before the assay. […] Attached cells were solubilized with 0.1 N NaOH and radioactivity was measured in a β scintillation counter. The cpm attached/total cpm added (attaching potential) was determined.

Row | Molecule | binding to NCA-90 [1] | decrease of adhesion to fibronectin [2] [%] | reactivity with NCA, MA and CEA [3] | decrease of adhesion to fibronectin [4] [%] | endothelial cell binding [5] [%]
1 | MN-15: murine Class I anti-CEA MAb, IgG1 kappa, binds A1B1 domain of CEACAM5 and CEACAM6 (antibody, V domains shown) VL: DIQLTQSPAIMSASPGEKVTMTCSASSRVSYIHWYQQKSGTSPKRWIYGTSTLASGVPARFSGSGSGTSYSLTISSMEAEDAATYYCQQWSYNPPTFGAGTKLELKR VH: EVRLVESGGGLVQGPGSLRLSCAASGFALTDYYMSWVRQSPGKTLEWLGFIANKANGHTTDYSPSVKGRFTISRDNSQTILYLQMNTLRTEDSATYYCARDMGIRWNFDVWGQGTTVTVSS | binds to all three antigens | 47 | reacted with normal cross-reactive antigen (NCA), MA, and CEA | 51 | 
2 | MN-15 Fab′: monovalent Fab′ fragment of murine MN-15 (antibody, V domains shown) VL: DIQLTQSPAIMSASPGEKVTMTCSASSRVSYIHWYQQKSGTSPKRWIYGTSTLASGVPARFSGSGSGTSYSLTISSMEAEDAATYYCQQWSYNPPTFGAGTKLELKR VH: EVRLVESGGGLVQGPGSLRLSCAASGFALTDYYMSWVRQSPGKTLEWLGFIANKANGHTTDYSPSVKGRFTISRDNSQTILYLQMNTLRTEDSATYYCARDMGIRWNFDVWGQGTTVTVSS |  |  |  |  | 5.53±1.15
